Assay results reported in patent US6887705B1, “Tyrosine phosphorylated cleavage furrow-associated proteins (PSTPIPs)” (Genentech, Inc., priority 1997, dated 2005).

How the values were obtained:
Assay in all cases: in vitro translated PTP HSCF mutant precipitated with 1 or 10 µg/ml GST PST PIP
[1] = molecular target: T1, PTP HSCF with G442 mutated to alanine, HA tagged (UniProt Q61152 1-453)
T1 construct: range 1-453; also called HSCF G442
T1 sequence (looked up): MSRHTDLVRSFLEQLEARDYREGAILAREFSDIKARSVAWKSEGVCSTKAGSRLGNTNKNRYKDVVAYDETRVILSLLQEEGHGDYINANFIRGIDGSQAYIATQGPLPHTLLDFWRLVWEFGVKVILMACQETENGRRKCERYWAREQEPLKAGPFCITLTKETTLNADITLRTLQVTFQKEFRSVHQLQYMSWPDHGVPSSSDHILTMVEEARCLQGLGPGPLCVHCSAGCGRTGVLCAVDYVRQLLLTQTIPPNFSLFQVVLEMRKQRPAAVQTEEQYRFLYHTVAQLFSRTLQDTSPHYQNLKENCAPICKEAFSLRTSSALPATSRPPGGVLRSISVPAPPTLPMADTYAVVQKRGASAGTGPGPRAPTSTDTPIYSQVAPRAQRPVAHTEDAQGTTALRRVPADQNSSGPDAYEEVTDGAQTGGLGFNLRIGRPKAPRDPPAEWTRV
Experimental: (§1) Multiple bands precipitated with the GST PST PIP fusion protein are apparently C-terminal proteolyzed products of the PTP. Also shown are GST PST PIP precipitations (10 μg/ml) performed on a double mutant of PTP HSCF (R+W) with both residues $R444$ and $W450$ mutated to alanine (bottom panel FIG. 14 A/2). B. COS cells were co-transfected with a 10:1 ratio of plasmids encoding hemagglutinin (HA) tagged PTP HSCF with the illustrated alanine substitutions or a mutant of PTP HSCF deleted for the C-terminal 24 amino acids (PTP $HSCFD24$) and wild type PST PIP with a C-terminal FLAG epitope tag, respectively. Transfected cell lysates were immunoprecipitated with anti-HA monoclonal antibodies and the precipitates were blotted with anti-PST PIP polyclonal antibody to detect the relative amounts of PST PIP complexed with either wild type or different mutant forms of PTP HSCF. Lysates were also immunoprecipitated with anti-HA antibody and blotted with the same antibody to insure equal expression of PTP HSCF. Equal expression of PSTPIP was determined by immunoprecipitating lysates with anti-FLAG monoclonal antibody and blotting with anti-PST PIP polyclonal antibody.
(§2) In vitro binding analyses between various PTP HSCF and PST PIP constructs were performed as previously described (Spencer et al, (1997), supra). Briefly, plasmids were transcribed and translated in vitro using the TnT Rabbit Reticulocyte Lysate System (Promega). Samples were diluted in 50 mM HEPES, pH 7.2, 1% triton X-100, 10% glycerol, 100 mM NaCl, and 2 µg/ml each of leupeptin, pepstatin, aprotinin and PMSF (lysis buffer). Samples were than reacted with GST fusion proteins at various concentrations, and the bound proteins were centrifuged using glutathione-sepharose beads and analyzed on SDS polyacrylamide gels. C-terminally-derived peptide inhibition studies were performed by incubating the GST fusion protein binding reactions in the presence of 10 µg/ml of the indicated peptides. Peptides were produced by FMOC-protected amino acids as previously described (Spencer et al, (1997), supra). In vivo interactions between various forms of PTP HSCF and PST PIP were also performed as previously described (Spencer et al, (1997), supra).

[2] = molecular target: T2, PTP HSCF with W450 mutated to alanine, HA tagged (UniProt Q61152 1-453)
T2 construct: range 1-453; also called HSCF W450
T2 sequence (looked up): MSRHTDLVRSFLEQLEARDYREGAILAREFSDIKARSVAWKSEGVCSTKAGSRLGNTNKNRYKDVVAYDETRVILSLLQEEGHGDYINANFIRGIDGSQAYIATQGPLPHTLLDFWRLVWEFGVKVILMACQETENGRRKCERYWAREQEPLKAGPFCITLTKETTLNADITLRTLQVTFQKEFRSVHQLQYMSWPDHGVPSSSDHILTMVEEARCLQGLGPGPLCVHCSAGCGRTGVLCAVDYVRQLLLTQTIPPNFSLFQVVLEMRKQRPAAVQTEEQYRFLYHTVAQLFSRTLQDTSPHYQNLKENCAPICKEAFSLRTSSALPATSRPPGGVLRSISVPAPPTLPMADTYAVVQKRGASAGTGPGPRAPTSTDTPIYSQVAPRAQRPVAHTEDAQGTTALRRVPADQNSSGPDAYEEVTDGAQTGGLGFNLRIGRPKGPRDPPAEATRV
Experimental: as §1, §2

[3] = molecular target: T3, PTP HSCF with P447 mutated to alanine, HA tagged (UniProt Q61152 1-453)
T3 construct: range 1-453; also called HSCF P447
T3 sequence (looked up): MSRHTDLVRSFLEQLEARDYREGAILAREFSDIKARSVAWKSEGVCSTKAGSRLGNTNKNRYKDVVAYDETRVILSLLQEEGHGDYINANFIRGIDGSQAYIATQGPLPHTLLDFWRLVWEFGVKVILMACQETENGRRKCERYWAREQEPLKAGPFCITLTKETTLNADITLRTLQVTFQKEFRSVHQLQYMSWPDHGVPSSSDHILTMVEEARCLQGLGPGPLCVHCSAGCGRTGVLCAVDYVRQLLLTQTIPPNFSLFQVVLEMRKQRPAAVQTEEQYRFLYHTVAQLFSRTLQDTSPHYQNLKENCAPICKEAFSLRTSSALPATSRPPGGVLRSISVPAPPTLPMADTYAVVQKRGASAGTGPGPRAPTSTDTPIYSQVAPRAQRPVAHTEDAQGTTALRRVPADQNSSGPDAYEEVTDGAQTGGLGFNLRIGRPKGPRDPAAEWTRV
Experimental: as §1, §2

[4] = molecular target: T4, PTP HSCF with P443 mutated to alanine, HA tagged (UniProt Q61152 1-453)
T4 construct: range 1-453; also called HSCF P443
T4 sequence (looked up): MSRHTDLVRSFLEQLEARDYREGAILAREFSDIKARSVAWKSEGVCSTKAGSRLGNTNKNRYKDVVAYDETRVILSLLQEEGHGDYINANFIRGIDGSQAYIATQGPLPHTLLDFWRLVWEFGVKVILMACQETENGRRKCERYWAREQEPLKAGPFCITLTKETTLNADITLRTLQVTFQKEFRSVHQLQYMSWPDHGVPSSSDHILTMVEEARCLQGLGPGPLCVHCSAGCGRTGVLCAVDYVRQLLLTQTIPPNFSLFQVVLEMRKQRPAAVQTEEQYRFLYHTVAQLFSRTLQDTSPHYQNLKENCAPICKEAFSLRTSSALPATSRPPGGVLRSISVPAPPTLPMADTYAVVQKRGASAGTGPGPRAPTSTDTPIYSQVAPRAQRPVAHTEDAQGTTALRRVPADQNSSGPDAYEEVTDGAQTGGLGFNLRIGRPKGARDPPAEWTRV
Experimental: as §1, §2

Measured: binding result

B1: GST-PSTPIP (GST fusion of full-length PSTPIP, amino acids 2-415) (other)
chain: MAQLQFRDAFWCRDFTAHTGYEVLLQRLLDGRKMCKDVEELLRQRAQAEERYGKELVQIARKAGGQTEMNSLRTSFDSLKQQTENVGSAHIQLALALREELRSLEEFRERQKEQRKKYEAIMDRVQKSKLSLYKKTMESKKAYDQKCRDADDAEQAFERVSANGHQKQVEKSQNKAKQCKESATEAERVYRQNIEQLERARTEWEQEHRTTCEAFQLQEFDRLTILRNALWVHCNQLSMQCVKDDELYEEVRLTLEGCDVEGDINGFIQSKSTGREPPAPVPYQNYYDREVTPLIGSPSIQPSCGVIKRFSGLLHGSPKTTPSAPAASTETLTPTPERNELVYASIEVQATQGNLNSSAQDYRALYDYTAQNSDELDISAGDILAVILEGEDGWWTVERNGQRGFVPGSYLEKL
notes: Made in DH5-alpha bacteria from pGEX4T-2; also called GST-full-length PSTPIP; GST PTP PIP; not shown: glutathione S-transferase encoded by pGEX-4T-2 (Pharmacia)
binds: all assays above
